Test results: paper PMC7027792, “Phenylalanine meta‐Hydroxylase: A Single Residue Mediates Mechanistic Control of Aromatic Amino Acid Hydroxylation” (Chembiochem, 2019)
Substitutions are numbered along the chain they refer to. Names and notes keep the numbering of the source.

What was measured:
[1] = target: T1, Phe3H (phenylalanine 3-hydroxylase) (Streptomyces coeruleorubidus, UniProt F5BFC8); assay: steady-state inhibition kinetics of hydroxylation; type: biochemical
T1 construct: gene pacX; purified Phe3H
Text: steady-state inhibition kinetics of hydroxylation on […]

purified protein [2] = substrate: CC1Nc2nc(N)[nH]c(=O)c2NC1C; assay: purified protein; type: biochemical, Streptomyces coeruleorubidus; details: pterin varied, fixed L-Phe, pH 8, 28 °C, varied: cofactor
purified protein [3] = substrate: NC(Cc1ccc(F)cc1)C(=O)O; assay: purified protein; type: biochemical, Streptomyces coeruleorubidus; details: fixed 6MPH4 cofactor, racemic substrate, pH 8, 28 °C
purified protein [4] = substrate: NC(Cc1ccccc1F)C(=O)O; assay: purified protein; type: biochemical, Streptomyces coeruleorubidus; details: fixed 6MPH4 cofactor, racemic substrate, pH 8, 28 °C
purified protein [5] = substrate: N[C@@H](Cc1ccccc1)C(=O)O; assay: purified protein; type: biochemical, Streptomyces coeruleorubidus
[6] = fixed 6MPH4 cofactor, labelled compound, pH 8, 28 °C
[7] = fixed 6MPH4 cofactor, pH 8, 28 °C
[8] = pterin cofactor (6MPH4 for wild type), labelled compound
[9] = pterin cofactor (6MPH4 for wild type), optimised assay conditions

## NC(Cc1cccc(F)c1)C(=O)O (racemic) [3F‐Phe]
[1]
  Ki: 800 µM

B1: Phe3H (phenylalanine 3-hydroxylase) (Streptomyces coeruleorubidus) (protein)
chain: MQGPHAQMTDAAYEIRRSEIAALSTDLAPEDPIPVVEYTEWEHEVWRTVCVDLTARHRTDAAAEYLESAEQLAVPLDHVPQLRDVSGRLGSISGFTFQSAPALVPLREFCGGLANSVFHSTQYLRHPRSPFYTEDPDLLHDLVGHGNVLASDRFARLYRLAGNAAARVHSTEALQFIGKVFWFTLECGVVRERGERKAYGATLVSSYGELDHFRSADFRPLDIKSLADVEYDISTYQPILFEADSMDEVEDTVGSFWDTCDDDSIAALLGGTSRSVTPH
notes: purified Phe3H
Purified protein [2]
  Km: 98 ± 10 µM
  kcat: 1.3 ± 0.05 s⁻¹
  kcat/Km: 13300 ± 650 M⁻¹ s⁻¹
Purified protein [3]
  Km: 230 ± 60 µM
  kcat: 0.233 ± 0.00833 s⁻¹
  kcat/Km: 1050 ± 107 M⁻¹ s⁻¹
Purified protein [4]
  Km: 1900 ± 100 µM
  kcat: 0.167 ± 0.00333 s⁻¹
  kcat/Km: 88.3 ± 2 M⁻¹ s⁻¹
Purified protein [5]; [6]
  Km: 540 ± 70 µM
  kcat: 0.567 ± 0.0167 s⁻¹
  kcat/Km: 1050 ± 48.3 M⁻¹ s⁻¹
Purified protein [5]; [7]
  Km: 400 ± 60 µM
  kcat: 0.633 ± 0.0333 s⁻¹
  kcat/Km: 1580 ± 118 M⁻¹ s⁻¹

B2: Phe3H (phenylalanine 3-hydroxylase) (Streptomyces coeruleorubidus; T202S) (protein)
chain: B1 chain with T202S
notes: purified Phe3H
Purified protein [5]; [8]
  Km: 400 ± 300 µM
  kcat: 0.217 ± 0.0667 s⁻¹
Purified protein [5]; [9]
  Km: 500 ± 200 µM
  kcat: 0.433 ± 0.0833 s⁻¹

B3: Phe3H (phenylalanine 3-hydroxylase) (Streptomyces coeruleorubidus; C187A) (protein)
chain: B1 chain with C187A
notes: purified Phe3H
Purified protein [5]; [8]
  Km: 130 ± 30 µM
  kcat: 0.217 ± 0.00667 s⁻¹
Purified protein [5]; [9]
  Km: 100 ± 10 µM
  kcat: 0.283 ± 0.005 s⁻¹
